In the supplement of paper PMC9170038:

What was measured:
MS2 coat protein [1] = test: apparent KD of MS2 coat protein, switch OFF state (with FMN for OFF switches, without FMN for ON switches); designed switch direction (-1 OFF switch, 1 ON switch): 1; higher = weaker reporter binding; settings: FMN input: 0 or 200 uM; Eterna round: R93 (includes R88 designs)
Summary of the method: (§1)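 Apparent KD per design is the median of normalised cluster binding-curve fits. Designed RNA switches transcribed on-chip from Illumina sequencing clusters were titrated with SNAP-549-labelled MS2 coat protein in twofold steps from 0.7 or 1.5 nM to 3 µM, with 0.8–1.5 h down to 10–20 min per step. Buffer: 100 mM Tris-HCl pH 7.5, 80 mM KCl, 4 mM MgCl2, without or with constant ligand.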

MS2 coat protein [2] = test: apparent KD of MS2 coat protein, switch ON state; designed switch direction (-1 OFF switch, 1 ON switch): 1; higher = weaker reporter binding; settings: FMN input: 0 or 200 uM; Eterna round: R93 (includes R88 designs)
Summary of the method: as §1

Sequence	apparent KD of MS2 coat protein (MS2 coat protein [1]) [nM]	apparent KD of MS2 coat protein (MS2 coat protein [2]) [nM]
GAAAAACAUGAGGAUCACCCAUGUGAAAACUUGGGAGGAUAUACAAAGACGAAAGUCGAAGUAGAAGGCCUAAAAG [Same State 1.4k (Mat - Mod of Eli - )]	106	17.2
AAAAAACAUGAGGAUCACCCAUGUGCAAAAUUCGCAGGAUAUUCUUUUUUUAAAUGAGAGGGAGAAGGGUGUAAAA [Nob's Hobby 21 - Jieux - Same State 1]	22.4	25.5
AGGAAACAUGAGGAUCACCCAUGUGUAAAAAAUACAGGAUAUGGAAACACGAAAGUGAAACCAGAAGGGUAAAAAA [77%, Mat - Mod of Eli, 31]	19	13.4
AAAAAAAAAGUAGAGGAUAUCCAAAUGGCUACAUGAGGAUCACCCAUGUGAAGAAAAGCACAUGAGGAGAAGGCUACAAAAAAAAA [Blender bender]	21.7	12.1
AUAAAACAUGAGGAUCACCCAUGUAAUAAGAACCGAGGAUAUGGAAAUAAUAAUAAUAAACCAGAAGGUGGUGAUC [Meechl MS2 SS1]	105	110
AGCACGUGAUUGGAGGAUAUGUAGUAAGCAACAUGAGGAUCACCCAUGUCUGAGGCUGAAAACCAGCAGAAGGCCGAUACAACCA [SS2-1.6]	22.7	15.3
AAAUAAAGGAUUAAGGAUAUAUCACAUGAAACAUGAGGAUCACCCAUGUAAUAAUAUAAAGGGUGAUAGAAGGUAGUUUAUAAAUA [High Roller2]	242	295
GAAAUACAUGAGGAUCACCCAUGUUAGGUGGGUCAAGGAUAUUAAGGUAAAUAAAAACCUUGAGAAGGUGAAUAAA [JR_SS001_Sub203]	239	157
AAACCACAUGAGGAUCACCCAUGUAAAAAUAUGGGAGGAUAUACUAGAAGAAACAAAAUAGUAGAAGGCCUAAAAA [75%, Ex sub1, 28]	78.1	33.6
AAGAAACAUGAGGAUCACCCAUGUGAGAUAAACACAGGAUAUGCGAAAAGAAAUAAAGAAGCAGAAGGGUGAAGAA [Mat - Same State 1 - Tesla mod - 71]	94.1	20.5
AAGAAAGAAACGCAGGAUAUGCAAAACAAAACAUGAGGAUCACCCAUGUCUUACUUACAAACAAAGCAGAAGGGCGAAAGAAAGAA [Same State 2 B]	20	16.4
AGAAAUAAAGCUGAGGAUAUGGGAAAAUUCACAUGAGGAUCACCCAUGUAAAAGAAAAUAAAAAACCAGAAGGCAGCAAAUAAGA [Designing denovo 6]	49.8	27.6
AAAAAACAUGAGGAUCACCCAUGUGAGAACAUGGGAGGAUAUACGAGGACGAGAGUCAGAGUAGAAGGCCUAAAAA [Garnet 66]	51.7	161
GAAAAACAUGAGGAUCACCCAUGUGGAAAUAUGGGAGGAUAUACUAAGACGAAAGUCGAUGUAGAAGGCCUAAAAG [Same State 1.4e (Mat - Mod of Eli - )]	82.9	22
AUGAAUAGCAUCGAGGAUAUCCAGUCAUGCACAUGAGGAUCACCCAUGUAAGAGAGAGUAUAAUGGGAGAAGGCGAGUACUCGAU [JR_SS002_Sub1704]	69.4	82
CAUCAACAUGAGGAUCACCCAUGUCAGUGAUGUCAAGGAUAUGGGAGACAUAAAAUUCUUCUAGAAGGUGAAAGAU [Orlaanar]	125	209
AAGAAACAUGAGGAUCACCCAUGUACCCAAAAGGGAGGAUAUGGAAAAGAAAGAAAGAAACCAGAAGGCCCAUGAA [Artabanus the Hyrcanian]	22.2	10.8
AAGAAACAUGAGGAUCACCCAUGUAGAAAUAUGGGAGGAUAUACGAAGACGAAAGUCAAAGUAGAAGGCCUAAAAG [Mat - Same State 1 - Eli mod - D107]	68.7	21
GAAAAACAUGAGGAUCACCCAUGUAGAAACUAGGGAGGAUAUACUAAGACGAAAGUCGAAGUAGAAGGCCUUUAAA [Same State 1.4m (Mat - Mod of Eli - )]	14.7	14.2
AUAUGAUCAUGUGAGGAUAUCCAUAAUAAAACAUGAGGAUCACCCAUGUAUAGAUAAUAAUAAUGGGAGAAGGCACAUGAUCAAU [SS 2 M41]	17.9	21.6
AAAUAAAUGACUAAGGAUAUCUCAGAGAAAACAUGAGGAUCACCCAUGUAAUAAUAACAUGAGUGAGAGAAGGUAGUCAACAAAC [Same State 2.3 (Pariah 4 -changed stack on 9nt hairpin)]	57.5	24.3
